± gives the standard error. For part of these data: Fewer inactive variants are shown than the library holds.
B1: glmS ribozyme (parent)
chain: AUAAAAGCGCCAGAACUACAGAAAUGUAGUUGACGAGGAGGAGGUUUAUCGAAUUUUCGGCGGAUGCCUCCAAA

How the values were obtained:
Settings in all cases: with glucosamine-6-phosphate
[1] = variants of: B1; assay: kcat; higher = faster cleavage; RNA array
Outline: (§1)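 Weighted Michaelis–Menten fits across concentrations supplied kcat and KM, based on kobs from one- or two-exponential decay fits to normalised per-tile medians. The data came from barcoded ribozyme variants transcribed in situ by E. coli RNA polymerase on sequenced MiSeq chips and tracked at 37 °C by a hybridised Cy3 probe. Glucosamine-6-phosphate (40 μM to 10 mM) in HEPES/KCl/Mg(OAc)2 buffer was flowed in.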

[2] = variants of: B1; assay: KM; higher = weaker cofactor use; RNA array
Outline: as §1

[3] = variants of: B1; assay: self-cleavage kobs at 640 uM GlcN6P; higher = faster cleavage; RNA array
Outline: as §1

[4] = variants of: B1; assay: self-cleavage kobs at 2500 uM GlcN6P; higher = faster cleavage; RNA array
Outline: as §1

[5] = variants of: B1; assay: self-cleavage kobs at 10000 uM GlcN6P; higher = faster cleavage; RNA array
Outline: as §1

[6] = variants of: B1; assay: self-cleavage kobs at 40 uM GlcN6P; higher = faster cleavage; RNA array
Outline: as §1

[7] = variants of: B1; assay: self-cleavage kobs at 160 uM GlcN6P; higher = faster cleavage; RNA array
Outline: as §1

| Variant | kcat [1] | KM [2] | self-cleavage kobs at 640 uM GlcN6P [3] | self-cleavage kobs at 2500 uM GlcN6P [4] | self-cleavage kobs at 10000 uM GlcN6P [5] | self-cleavage kobs at 40 uM GlcN6P [6] | self-cleavage kobs at 160 uM GlcN6P [7] |
| --- | --- | --- | --- | --- | --- | --- | --- |
| U54G C58A | 0.000823 ± 5.9e-05 s⁻¹ | 2870 ± 360 µM | 0.00015 ± 2.9e-05 s⁻¹ | 0.000361 ± 0.00012 s⁻¹ | 0.000646 ± 0.00011 s⁻¹ |  |  |
| U55G U56G | 0.0156 ± 0.0072 s⁻¹ |  | 0.00307 ± 0.00039 s⁻¹ | 0.00561 ± 0.00078 s⁻¹ | 0.0215 ± 0.0038 s⁻¹ | 0.000205 ± 3e-05 s⁻¹ | 0.000797 ± 0.00014 s⁻¹ |
| C61U C71G | < 1e-05 s⁻¹ |  |  |  |  |  | < 1e-05 s⁻¹ |
| U56G C67G | 0.000876 ± 9.7e-05 s⁻¹ | 1260 ± 220 µM | 0.00028 ± 2.1e-05 s⁻¹ | 0.000582 ± 5.1e-05 s⁻¹ | 0.00081 ± 7.6e-05 s⁻¹ | 3.84e-05 ± 5.8e-06 s⁻¹ | 9.74e-05 ± 8.1e-06 s⁻¹ |
| U56C U69C | 3.67e-05 ± 7.4e-06 s⁻¹ |  |  |  | 3.13e-05 ± 1.3e-05 s⁻¹ | < 1e-05 s⁻¹ |  |
| U54C U69A | 0.000112 ± 7.5e-06 s⁻¹ | 82 ± 22 µM | 0.000111 ± 3.8e-05 s⁻¹ | 0.000123 ± 3.1e-05 s⁻¹ | 0.000105 ± 2e-05 s⁻¹ | 3.96e-05 ± 1.5e-05 s⁻¹ | 6.58e-05 ± 2.2e-05 s⁻¹ |
| U56A U69A | 9.71e-05 ± 1.6e-05 s⁻¹ |  | 8.46e-05 ± 1.2e-05 s⁻¹ | 0.000155 ± 2.3e-05 s⁻¹ | 8.66e-05 ± 1.1e-05 s⁻¹ | 4e-05 ± 1.1e-05 s⁻¹ | 5e-05 ± 1.3e-05 s⁻¹ |
| U57A C70G | 3.91e-05 ± 1.5e-05 s⁻¹ |  | 4.96e-05 ± 1.4e-05 s⁻¹ | 6.55e-05 ± 1.6e-05 s⁻¹ |  |  |  |
| G59A C71U | 6.15e-05 ± 1.4e-06 s⁻¹ | 1210 ± 130 µM |  | 4.05e-05 ± 7.8e-06 s⁻¹ | 5.51e-05 ± 6.9e-06 s⁻¹ | < 1e-05 s⁻¹ |  |
| A53U U54C | 0.00788 ± 0.0015 s⁻¹ | 619 ± 200 µM | 0.00401 ± 0.00061 s⁻¹ | 0.00897 ± 0.0018 s⁻¹ | 0.00704 ± 0.001 s⁻¹ | 0.000577 ± 7.7e-05 s⁻¹ | 0.0012 ± 0.00025 s⁻¹ |
| U54A C68G | 9.86e-05 ± 2.8e-06 s⁻¹ | 31 ± 7.5 µM | 8.94e-05 ± 1.3e-05 s⁻¹ | 0.000106 ± 1.9e-05 s⁻¹ | 9.77e-05 ± 9.3e-06 s⁻¹ | 5.44e-05 ± 1.6e-05 s⁻¹ | 8.95e-05 ± 2.1e-05 s⁻¹ |
| C58U C67U | 2.38e-05 ± 3.4e-06 s⁻¹ |  |  | 2.92e-05 ± 8e-06 s⁻¹ | 2.01e-05 ± 6.4e-06 s⁻¹ |  |  |
| U55G G60A | 2.4e-05 ± 6.2e-07 s⁻¹ | 1810 ± 130 µM |  |  |  |  |  |
| C58A C70U | 0.000164 ± 2.2e-05 s⁻¹ | 718 ± 270 µM | 6.79e-05 ± 8.4e-06 s⁻¹ | 0.000143 ± 1.3e-05 s⁻¹ | 0.000145 ± 1.7e-05 s⁻¹ |  | 3.94e-05 ± 9.4e-06 s⁻¹ |
| U54G U65C | 0.00111 ± 0.0001 s⁻¹ | 2390 ± 350 µM | 0.000211 ± 3.4e-05 s⁻¹ | 0.000567 ± 9.8e-05 s⁻¹ | 0.00091 ± 0.00012 s⁻¹ |  | 7.61e-05 ± 1.2e-05 s⁻¹ |
| U56C G60A | 1.14e-05 ± 1.1e-07 s⁻¹ | 1070 ± 61 µM |  |  |  |  |  |
| C58A U65G | 5.13e-05 ± 1.3e-05 s⁻¹ |  |  | 4.93e-05 ± 1.3e-05 s⁻¹ | 4.32e-05 ± 1.3e-05 s⁻¹ |  |  |

| Variant | kcat [1] | KM [2] | self-cleavage kobs at 640 uM GlcN6P [3] | self-cleavage kobs at 2500 uM GlcN6P [4] | self-cleavage kobs at 10000 uM GlcN6P [5] | self-cleavage kobs at 40 uM GlcN6P [6] | self-cleavage kobs at 160 uM GlcN6P [7] |
| --- | --- | --- | --- | --- | --- | --- | --- |
| U55G U65A | 0.00461 ± 0.00094 s⁻¹ | 3100 ± 880 µM | 0.000695 ± 0.00011 s⁻¹ | 0.00174 ± 0.00025 s⁻¹ | 0.00388 ± 0.00043 s⁻¹ | 6.02e-05 ± 7.6e-06 s⁻¹ | 0.000296 ± 4.5e-05 s⁻¹ |
| U55G U65G | 0.00419 ± 0.00048 s⁻¹ | 3440 ± 580 µM | 0.000628 ± 0.0001 s⁻¹ | 0.00164 ± 0.00022 s⁻¹ | 0.0033 ± 0.00045 s⁻¹ | 5.26e-05 ± 1.1e-05 s⁻¹ | 0.00022 ± 6.1e-05 s⁻¹ |
| U56C A64U | < 1e-05 s⁻¹ |  | < 1e-05 s⁻¹ |  |  | < 1e-05 s⁻¹ |  |
| U55C C58A | 0.000437 ± 0.00015 s⁻¹ |  | 9.55e-05 ± 1.2e-05 s⁻¹ | 0.000175 ± 2.3e-05 s⁻¹ | 0.000455 ± 6.7e-05 s⁻¹ |  | 4.03e-05 ± 1.3e-05 s⁻¹ |
| U57G C58G | 3.94e-05 ± 1.6e-05 s⁻¹ |  | 7.15e-05 ± 2.3e-05 s⁻¹ | 5.55e-05 ± 2e-05 s⁻¹ |  |  |  |
| U54A C70U | 0.00432 ± 0.00063 s⁻¹ | 78.3 ± 20 µM | 0.00479 ± 0.0013 s⁻¹ | 0.00404 ± 0.0014 s⁻¹ |  | 0.00148 ± 0.00013 s⁻¹ | 0.00258 ± 0.00056 s⁻¹ |
| U57G G66A | 2.15e-05 ± 3.2e-06 s⁻¹ |  |  |  |  | < 1e-05 s⁻¹ |  |
| C61A C68G | 1.96e-05 ± 3.4e-06 s⁻¹ |  |  |  |  |  |  |
| C61A C68U | 1.56e-05 ± 2e-06 s⁻¹ |  |  |  |  |  |  |
| C58G C61G | 3.21e-05 ± 1e-05 s⁻¹ |  | 5.63e-05 ± 2.4e-05 s⁻¹ |  |  |  |  |
| U54A U57C | 0.000159 ± 5.5e-06 s⁻¹ | 2020 ± 160 µM | 3.98e-05 ± 1e-05 s⁻¹ | 8.52e-05 ± 1.3e-05 s⁻¹ | 0.000134 ± 2.1e-05 s⁻¹ |  |  |
| U55A U69A | 9.24e-05 ± 1e-05 s⁻¹ |  | 9.88e-05 ± 1.9e-05 s⁻¹ | 7.93e-05 ± 1.3e-05 s⁻¹ | 0.000129 ± 2.7e-05 s⁻¹ | 7.99e-05 ± 1.9e-05 s⁻¹ | 9.45e-05 ± 2.4e-05 s⁻¹ |
| U54C C58G | 5.26e-05 ± 4.8e-06 s⁻¹ | 7250 ± 1300 µM |  |  | 3.05e-05 ± 1.2e-05 s⁻¹ |  |  |
| G60A C70G | 1.99e-05 ± 7.1e-06 s⁻¹ |  |  |  |  |  |  |
| G60A C70U | 3.47e-05 ± 4e-06 s⁻¹ |  |  | 1.93e-05 ± 9.2e-06 s⁻¹ | 3.02e-05 ± 6.5e-06 s⁻¹ | < 1e-05 s⁻¹ |  |
| U55C G60U | 1.04e-05 ± 3.4e-06 s⁻¹ |  | < 1e-05 s⁻¹ |  | < 1e-05 s⁻¹ | < 1e-05 s⁻¹ | < 1e-05 s⁻¹ |

— the supplement of paper PMC7125110
